Data from publication PMC3025051 (Cell cycle (Georgetown, Tex.), 2011).

Target: T1, MAL-Myc-tagged Cdc18 wild type (bacterial recombinant) (S. pombe, UniProt P41411 1-577)
T1 sequence (looked up): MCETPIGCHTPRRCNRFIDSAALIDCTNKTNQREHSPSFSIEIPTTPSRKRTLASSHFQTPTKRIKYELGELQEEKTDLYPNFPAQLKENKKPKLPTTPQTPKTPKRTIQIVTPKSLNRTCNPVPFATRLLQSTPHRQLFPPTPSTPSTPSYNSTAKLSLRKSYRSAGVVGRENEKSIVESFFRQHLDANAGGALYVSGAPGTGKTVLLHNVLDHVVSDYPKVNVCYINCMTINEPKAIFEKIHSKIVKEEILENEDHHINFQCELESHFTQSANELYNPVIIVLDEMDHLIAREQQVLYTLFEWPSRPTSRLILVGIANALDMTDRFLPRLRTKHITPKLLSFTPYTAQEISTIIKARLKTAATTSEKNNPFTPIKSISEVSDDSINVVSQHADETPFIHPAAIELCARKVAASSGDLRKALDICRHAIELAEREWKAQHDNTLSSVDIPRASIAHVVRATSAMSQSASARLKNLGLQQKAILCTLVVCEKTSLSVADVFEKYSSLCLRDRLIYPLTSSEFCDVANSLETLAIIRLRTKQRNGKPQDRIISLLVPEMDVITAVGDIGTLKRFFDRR
Assay: pull-down

binding result: binds
B1: 6his-FLAG-Swi6 wild type (bacterial recombinant) (natural protein, S. pombe, UniProt P40381 1-328, looked up)
chain: MKKGGVRSYRRSSTSKRSVIDDDSEPELPSMTKEAIASHKADSGSSDNEVESDHESKSSSKKLKENAKEEEGGEEEEEDEYVVEKVLKHRMARKGGGYEYLLKWEGYDDPSDNTWSSEADCSGCKQLIEAYWNEHGGRPEPSKRKRTARPKKPEAKEPSPKSRKTDEDKHDKDSNEKIEDVNEKTIKFADKSQEEFNENGPPSGQPNGHIESDNESKSPSQKESNESEDIQIAETPSNVTPKKKPSPEVPKLPDNRELTVKQVENYDSWEDLVSSIDTIERKDDGTLEIYLTWKNGAISHHPSTITNKKCPQKMLQFYESHLTFRENE
